Experimental findings from paper PMC3517901, “The TSC1-TSC2 complex consists of multiple TSC1 and TSC2 subunits” (BMC Biochemistry, 2012) are described below.

Sequences and labels used below:
B1: TSC1-TEV-myc, released from anti-myc beads by AcTEV (natural protein, UniProt Q92574 1-1164, looked up)
chain: MAQQANVGELLAMLDSPMLGVRDDVTAVFKENLNSDRGPMLVNTLVDYYLETSSQPALHILTTLQEPHDKHLLDRINEYVGKAATRLSILSLLGHVIRLQPSWKHKLSQAPLLPSLLKCLKMDTDVVVLTTGVLVLITMLPMIPQSGKQHLLDFFDIFGRLSSWCLKKPGHVAEVYLVHLHASVYALFHRLYGMYPCNFVSFLRSHYSMKENLETFEEVVKPMMEHVRIHPELVTGSKDHELDPRRWKRLETHDVVIECAKISLDPTEASYEDGYSVSHQISARFPHRSADVTTSPYADTQNSYGCATSTPYSTSRLMLLNMPGQLPQTLSSPSTRLITEPPQATLWSPSMVCGMTTPPTSPGNVPPDLSHPYSKVFGTTAGGKGTPLGTPATSPPPAPLCHSDDYVHISLPQATVTPPRKEERMDSARPCLHRQHHLLNDRGSEEPPGSKGSVTLSDLPGFLGDLASEEDSIEKDKEEAAISRELSEITTAEAEPVVPRGGFDSPFYRDSLPGSQRKTHSAASSSQGASVNPEPLHSSLDKLGPDTPKQAFTPIDLPCGSADESPAGDRECQTSLETSIFTPSPCKIPPPTRVGFGSGQPPPYDHLFEVALPKTAHHFVIRKTEELLKKAKGNTEEDGVPSTSPMEVLDRLIQQGADAHSKELNKLPLPSKSVDWTHFGGSPPSDEIRTLRDQLLLLHNQLLYERFKRQQHALRNRRLLRKVIKAAALEEHNAAMKDQLKLQEKDIQMWKVSLQKEQARYNQLQEQRDTMVTKLHSQIRQLQHDREEFYNQSQELQTKLEDCRNMIAELRIELKKANNKVCHTELLLSQVSQKLSNSESVQQQMEFLNRQLLVLGEVNELYLEQLQNKHSDTTKEVEMMKAAYRKELEKNRSHVLQQTQRLDTSQKRILELESHLAKKDHLLLEQKKYLEDVKLQARGQLQAAESRYEAQKRITQVFELEILDLYGRLEKDGLLKKLEEEKAEAAEAAEERLDCCNDGCSDSMVGHNEEASGHNGETKTPRPSSARGSSGSRGGGGSSSSSSELSTPEKPPHQRAGPFSSRWETTMGEASASIPTTVGSLPSSKSFLGMKARELFRNKSESQCDEDGMTSSLSESLKTELGKDLGVEAKIPLNLDGPHPSPPTPDSVGQLHIMDYNETHHEHS
notes: TSC1 with an AcTEV recognition site (ENLYFQG) introduced by site directed mutagenesis before the myc tag; after cleavage part of the site (ENLYFQ) would remain on TSC1; The position of the site is in Additional file 1
B2: TSC2, untagged, full-length (transfected) (natural protein)
chain: not shown
notes: TSC2; also called untagged TSC2; source: HEK 293T, transfected, in lysate; also co-purified with TSC1-TEV-myc on anti-myc beads and released by AcTEV

The target of data set [1] is B2. The experiment in a line: SEC; TSC1-TSC2 complex from cotransfected HEK 293T cells, purified on anti-myc affinity beads, released by AcTEV overnight at 4°C, Coomassie gel and Superose 6 gel filtration, fractions immunoblotted. Particulars: both partners purified.
Data set [2] concerns the molecule itself. The data set is described as above.

Take B1: in data set [1], the binding result is given as “binds”.

Regarding B2, the binding result in data set [2] is on record as “binds”.
